In publication PMC2673435:

Key:
Assay in all cases: fluorescence polarization
RPA•2(WF) = RPA•2(WF) (Saccharomyces cerevisiae, UniProt P22336;P26754;P26755 1-621;1-273;1-122, W101A;F143A)
RPA•2(DT) = RPA•2(DT) (Saccharomyces cerevisiae, UniProt P22336;P26754;P26755 1-621;1-273;1-122, D80A;T82A)
RPA•2(MM1) = RPA•2(MM1) (Saccharomyces cerevisiae, UniProt P22336;P26754;P26755 1-621;1-273;1-122, D80A;T82A;I96L;E97A;R99A;K100A;K146A;K147A)
RPA•2(ERK) = RPA•2(ERK) (Saccharomyces cerevisiae, UniProt P22336;P26754;P26755 1-621;1-273;1-122, I96L;E97A;R99A;K100A)
Chain of RPA•2(ERK) (P22336 whole entry, chain 1 of 3): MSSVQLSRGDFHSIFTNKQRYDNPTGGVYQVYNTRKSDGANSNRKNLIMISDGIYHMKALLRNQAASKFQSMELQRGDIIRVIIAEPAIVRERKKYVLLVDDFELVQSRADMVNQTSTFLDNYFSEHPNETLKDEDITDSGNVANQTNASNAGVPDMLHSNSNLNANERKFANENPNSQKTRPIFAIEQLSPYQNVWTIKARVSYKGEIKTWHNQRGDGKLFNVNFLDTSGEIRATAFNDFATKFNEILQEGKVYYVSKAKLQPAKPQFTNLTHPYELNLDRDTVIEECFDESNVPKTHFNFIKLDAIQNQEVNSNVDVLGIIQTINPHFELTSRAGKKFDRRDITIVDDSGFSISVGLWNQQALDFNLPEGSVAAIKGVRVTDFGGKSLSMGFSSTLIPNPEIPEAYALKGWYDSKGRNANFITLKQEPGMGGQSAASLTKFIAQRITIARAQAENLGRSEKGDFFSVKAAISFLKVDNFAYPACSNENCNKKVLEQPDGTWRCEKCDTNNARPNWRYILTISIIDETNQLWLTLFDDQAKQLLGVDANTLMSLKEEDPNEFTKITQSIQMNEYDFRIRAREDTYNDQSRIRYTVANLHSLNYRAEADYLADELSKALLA
Chain of RPA•2(ERK) (P26754 whole entry I96L/E97A/R99A/K100A, chain 2 of 3): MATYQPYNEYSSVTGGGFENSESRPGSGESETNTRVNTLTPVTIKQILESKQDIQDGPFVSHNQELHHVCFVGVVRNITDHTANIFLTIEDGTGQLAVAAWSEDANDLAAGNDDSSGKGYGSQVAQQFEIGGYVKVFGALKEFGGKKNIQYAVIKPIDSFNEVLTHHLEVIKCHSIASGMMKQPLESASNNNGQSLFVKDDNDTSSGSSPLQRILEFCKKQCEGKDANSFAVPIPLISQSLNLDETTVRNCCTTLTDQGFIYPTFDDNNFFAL
Chain of RPA•2(ERK) (P26755 whole entry, chain 3 of 3): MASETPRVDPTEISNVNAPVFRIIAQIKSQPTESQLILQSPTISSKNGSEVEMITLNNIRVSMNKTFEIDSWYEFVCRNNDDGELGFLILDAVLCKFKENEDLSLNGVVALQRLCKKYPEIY

RPA•2(MM2) = RPA•2(MM2) (Saccharomyces cerevisiae, UniProt P22336;P26754;P26755 1-621;1-273;1-122, D80A;T82A;E103A;D104A;D158A;E162A)
Chain of RPA•2(MM2) (P22336 whole entry, chain 1 of 3): as the sequence (P22336 whole entry, chain 1 of 3) above
Chain of RPA•2(MM2) (P26754 whole entry D80A/T82A/E103A/D104A/D158A/E162A, chain 2 of 3): as the sequence (P26754 whole entry I96L/E97A/R99A/K100A, chain 2 of 3) above, with D80A, T82A, L96I, A97E, A99R, A100K, E103A, D104A, D158A, E162A counted along it
Chain of RPA•2(MM2) (P26755 whole entry, chain 3 of 3): as the sequence (P26755 whole entry, chain 3 of 3) above

Chain of RPA•2(MM1) (P22336 whole entry, chain 1 of 3): as the sequence (P22336 whole entry, chain 1 of 3) above
Chain of RPA•2(MM1) (P26754 whole entry D80A/T82A/I96L/E97A/R99A/K100A/K146A/K147A, chain 2 of 3): as the sequence (P26754 whole entry I96L/E97A/R99A/K100A, chain 2 of 3) above, with D80A, T82A, K146A, K147A counted along it
Chain of RPA•2(MM1) (P26755 whole entry, chain 3 of 3): as the sequence (P26755 whole entry, chain 3 of 3) above
Chain of RPA•2(DT) (P22336 whole entry, chain 1 of 3): as the sequence (P22336 whole entry, chain 1 of 3) above
Chain of RPA•2(DT) (P26754 whole entry D80A/T82A, chain 2 of 3): as the sequence (P26754 whole entry I96L/E97A/R99A/K100A, chain 2 of 3) above, with D80A, T82A, L96I, A97E, A99R, A100K counted along it
Chain of RPA•2(DT) (P26755 whole entry, chain 3 of 3): as the sequence (P26755 whole entry, chain 3 of 3) above
Chain of RPA•2(WF) (P22336 whole entry, chain 1 of 3): as the sequence (P22336 whole entry, chain 1 of 3) above
Chain of RPA•2(WF) (P26754 whole entry W101A/F143A, chain 2 of 3): as the sequence (P26754 whole entry I96L/E97A/R99A/K100A, chain 2 of 3) above, with L96I, A97E, A99R, A100K, W101A, F143A counted along it
Chain of RPA•2(WF) (P26755 whole entry, chain 3 of 3): as the sequence (P26755 whole entry, chain 3 of 3) above

With TTTTTTTTTTTTTTTTTTTTTTTTTTTTTT (ssDNA) [dT30] the Ka (RPA•2(WF)) was 3.85e+07 M⁻¹, the binding result (RPA•2(DT)) was “binds” and the binding result (RPA•2(MM1)) was “binds”. TTTTTTTTTTTTTTTTTTTTTTTTTTTTTT (ssDNA) [dT30]: binds (RPA•2(ERK)); binds (RPA•2(MM2)).
